# Data from article PMC9834408, “The SPOC domain is a phosphoserine binding module that bridges transcription machinery with co- and post-transcriptional regulators” (Nature Communications, 2023).
# Molecular target: 2×S2P CTD diheptapeptide
# Assay: fluorescence polarisation; fluorescence anisotropy; 90 nM labelled peptide (Atto-488 on CTD peptides, FAM on NCoR and FMR1 peptides) titrated with increasing concentrations of SPOC domain; 20 °C; 25 mM Tris-Cl pH 7.4, 25 mM NaCl, 1 mM DTT; three independent dilution series
binder,measurement,value
PHF3 SPOC R1248A (domain or fragment) STFLARLNFIWKGFINMPSVAKFVTKAYPVSGSPEYLTEDLPDSIQVGGAISPQTVWDYVEKIKASGTKEICVVRFTPVTEEDQISYTLLFAYFSSRKRYGVAANNMKQVKDMYLIPLGATDKIPHPLVPFDGPGLELHRPNLLLGLIIRQKLKRQHS,Kd,8.4 µM
DIDO SPOC R1096A (domain or fragment) TLFLSRLSTIWKGFINMQSVAKFVTKAYPVSGCFDYLSEDLPDTIHIGGAIAPKTVWDYVGKLKSSVSKELCLIRFHPATEEEEVAYISLYSYFSSRGRFGVVANNNRHVKDLYLIPLSAQDPVPSKLLPFEGPGLESPRPNIILGLVICQKIKRPANS,Kd,22.4 µM
